experiment: yeast display, Sf9 membrane polyspecificity reagent, FACS + sequencing; frameworks hold sequencing errors
In short: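 Sorting gates, low and high (top ~1%), were placed on anti-HA fluorescence to track expression and on streptavidin fluorescence to track reagent binding. A clone's polyreactivity label is taken from the gate it came out of. The reagent was 10% biotinylated, detergent-solubilized Sf9 membrane, applied for 1 hour at 4 °C to galactose-induced yeast display cells.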

Row | Sequence | polyreactivity (PSR sort gate)
1 | QVQLVESGGGLVQAGGSLRLSCAASGSIFYRNAMGWYRQAPGKERELVAAISSDGSTNYADSVKGRFTISRDNAKNTVYLQMNSLKPEDTAVYYCNVPYYLPSYLSGYDYWGQGTQVTVSS | low polyreactivity
2 | QVQLVESGGGLVQAGGSLRLSCAASGSIFYRNAMGWYRQAPGKERELVAAITSSGGSTYYADSVKGRFTISRDNAKNTVYLQMNSLKPEDTAVYYCATRGWSKQLYGGYTQYYYWGQGTQVTVSS | high polyreactivity
3 | QVQLVESGGGLVQAGGSLRLSCAASGSIFYRNAMGWYRQAPGKERELVAAITSSGGSTYYADSVKGRFTISRDNAKYTVYFQMNSLKPEDTAVYYCNSVVTKFAKCRFLYYYWGQGTQVTVSS | high polyreactivity
4 | QVQLVESGGGLVQAGGSLRLSCAASGSIFYRNAMGWYRQAPGKERELVAVITRRGGRTYYADSVKGRFTISRDNAKNTVDLQMNSLKPEDTAVYYCNADTANYADGLDYWGQGTQVTVSS | low polyreactivity
5 | QVQLVESGGGLVQAGGSLRLSCAASGSIFYRNTMGWYRQAPGKERELVAAITSGGGTNYADSVKGRFTISRDNAKNTVYLQMNSLKPEDTAVYYCAASRQYTVGFYSWGQGTQVTVSS | high polyreactivity
6 | QVQLVESGGGLVQAGGSLRLSCAASGSIFYRNTMGWYRQAPVKERELVAAITSSGDSTYYADSVKGRFTISRDNAKNTVYFQMNSLKPEDTAVYYCAKDQHDFLEALYDSWGQGTQVTVSS | low polyreactivity
7 | QVQLVESGGGLVQAGGSLRLSCAASGSIFYRNVMGWYRQAPGKERELVAAISWSGGSTYYADSVKGRFTISRDKSKNTVYLQMNSLKPEDTAVYYCAADIPKTCYPYAFEYWGQGTQVTVSS | low polyreactivity
8 | QVQLVESGGGLVQAGGSLRLSCAASGSIFYRYAMGWYRQAPGKERELVAAIRSRTGRTYYADSVKGRFTISRDNAKNTVYLQMNCLNPEDTAVYYCAADKYFSARFDYWGQGTQVTVSS | high polyreactivity
9 | QVQLVESGGGLVQAGGSLRLSCAASGSIFYRYAMGWYRQAPGKERELVAAISFRTGSTYYADSVKGRFTISRDNAKNTVYFQMNSLKPEDTAVYYCAAEQLSTLRQRFDSWGQGTQVTVSS | high polyreactivity
10 | QVQLVESGGGLVQAGGSLRLSCAASGSIFYRYAMGWYRQAPGKERELVAAISYSGGSTYYADSVKGRFTISRDNAKNTVYLQMNSQKPEDTAVYYCAKDYPPPISDYSRYYGYGYWGKGTQVTVSS | low polyreactivity
11 | QVQLVESGGGLVQAGGSLRLSCAASGSIFYRYAMGWYRQAPGKERELVATIRSGGSTNYADSVKGRFTISRDNAKNTVYLQMKSLKPEDTAVYYCAAVTPETQPDSGPVPPMDSWGQGTQVTVSS | low polyreactivity
12 | QVQLVESGGGLVQAGGSLRLSCAASGSIFYRYSMGWYRPAPGKESELVATITQSGVTTYYADSVKGRFTISRDNAKNTVYLELNSVKPEDTAVYYCAASYYYYLGPFFRKFDWGQGTQVTVSS | low polyreactivity
13 | QVQLVESGGGLVQAGGSLRLSCAASGSIFYSNAMGWYRQAPGKEREFVATITQTGSSTYDADSVKGRFTISRDNAKNTVYLQMNSLKPEVTAVYYCAVDWILYEYEDDFWYRYDYWGQGTQVTVSS | low polyreactivity
14 | QVQLVESGGGLVQAGGSLRLSCAASGSIFYSNAMGWYRQAPGKERELVAAISGSGGTTYYADSVKGRFTISRDNAKNTVYIQMNSLKPEDTAVYYCAAKPRVRVRLSDYWGQGTQVTVSS | high polyreactivity
15 | QVQLVESGGGLVQAGGSLRLSCAASGSIFYSNTMGWYSQAPGKERELVAAISSSSGRTYYADSVKGRFTISRDNAKNTVYLQMNSLKPEDTAVYYCARRYGWGQGTQVTVSS | high polyreactivity
16 | QVQLVESGGGLVQAGGSLRLSCAASGSIFYSNVMGWYRQAPGKERELVASITNGGGTYYADSVKGRFTISRDNAKNTVYLQMNSLKPEDTAVYYCAADPDRTAYDYWGQGTQVTVSS | low polyreactivity
17 | QVQLVESGGGLVQAGGSLRLSCAASGSIFYSYAKGSYLQAPGKERELVADITFSGVSTYYADSVKGRFTISRDNAKNTVYLQMKSLKTEDTAVYYGAADGVSRWYLYRWYDYDYWGQGTQVTVSS | low polyreactivity
18 | QVQLVESGGGLVQAGGSLRLSCAASGSIFYSYAMGWYIQAPGKERELVAVISSGGRTNYADSVKGRFTISRDNAKNTVYLQMNSLKPEDTAVYYCAARNYLYRYARAYDYWGQGTQVTVSS | high polyreactivity
19 | QVQLVESGGGLVQAGGSLRLSCAASGSIFYSYAMGWYRQAPGKERELVADITITGSTYYADSVKGRFTISRDNAKNTVYLQMNSLKPDDTAVYYCNAVLAPGGYDYWGQGTQVTVSS | low polyreactivity
20 | QVQLVESGGGLVQAGGSLRLSCAASGSIFYTNAMGWYRQAPGKERELVAAISCSGDSTYYADSVKGRFTISRDNAKNTVYLQMNSLKPEDTAVYYCNADRRSYNGFRYYYWGQGTQVTVSS | low polyreactivity
21 | QVQLVESGGGLVQAGGSLRLSCAASGSIFYTNAMGWYRQAPGKERELVAAISISGSTYYADSVKGRFTISRDNAKNTVYLQMNSLKPEDTAVYYCAAGPGYVRYPRSGVWYVTLYDYWGQGTQVTVSS | high polyreactivity

Row | Sequence | polyreactivity (PSR sort gate)
22 | QVQLVESGGGLVQAGGSLRLSCAASGSIFYTNAMGWYRQAPGKERELVAAYADSVKGRFTISRDNAKNTVYLQMNSLKPEDTAVYYCNAVLPIYRYLYEGDYWGQGTQVTVSS | low polyreactivity
23 | QVQLVESGGGLVQAGGSLRLSCAASGSIFYTNAMGWYRQAPGKERELVASITGGGSTKYADSVKGRFTISRDNAKNTVYLQMNSLKPEDTAVYYCAKRRYWPLDWGQGTQVTVSS | high polyreactivity
24 | QVQLVESGGGLVQAGGSLRLSCAASGSIFYTYAMGWYRQAPGKERELVAAISRSGGSTYYADSVKGRFTISRDNAKNTVYVQMNSLKPEETAVYYCAAVSYRGRGYWGQGTQVTVSS | high polyreactivity
25 | QVQLVESGGGLVQAGGSLRLSCAASGSIFYTYTMGWYRQAPGKERELVAAISWSGGSTYYADSVKGRFTISRDNAKNTVYLQMISLKPEDTAVYYCAAYGTGYYGYDYWGQGTQVTVSS | low polyreactivity
26 | QVQLVESGGGLVQAGGSLRLSCAASGSIFYVNAMGWYRQAPGKERELVAAISVRGGRTYYADSVKGRFTISRDNAKNTVYLQMNSLKPEDTAVYYCATRISTVGRYDYWGQGTQVTVSS | high polyreactivity
27 | QVQLVESGGGLVQAGGSLRLSCAASGSIFYVNTMVWYRQAPGKERELVAGITSRGGSTYYADSVKGRFTISRDNAKNSVYLQMNSLKPEDTAVYYCAKRAYGTALYRGYGYWGQGTQVTVSS | low polyreactivity
28 | QVQLVESGGGLVQAGGSLRLSCAASGSIFYVYAMGWYGQAPGKDRELVASISWGDSSTYYADSVKGRFTISRDTAKNTVYLQMNSLKPEDTAVYYCAADEYRQYALYDYWGQGTQVTVSS | low polyreactivity
29 | QVQLVESGGGLVQAGGSLRLSCAASGSIFYVYAMGWYRQAPGKERELVAAITARVTSTYYADSVKGRFTISRDNAKNTVYLQMNSLKPEDTAVYSCAARTSYKTGYRKYDYWGQATQVTVSS | low polyreactivity
30 | QVQLVESGGGLVQAGGSLRLSCAASGSIFYVYAMGWYRQAPGKERELVAAITNYADSVKGRFTISRDNAKNTVYLQMNSLKPEDTAVYYCAADWWRVEMDYWGQVTQVTVSS | low polyreactivity
31 | QVQLVESGGGLVQAGGSLRLSCAASGSIFYVYAMGWYRQAPGKERELVASINKYGGSTYYADSVKGRFTISRDNAKNTVYLQMNSLKPADTAVYYCAARTGWPRVGFQYPAHVGFDYWGQGTQVTVSS | low polyreactivity
32 | QVQLVESGGGLVQAGGSLRLSCAASGSIFYVYAMGWYRQSPGKERELVAAITSSGTTNYADSVKGRFTISRDNAKNTVYLLMNSLKPEDSAVYYCAADPDSGHVRFDYWGQGTQVTVSS | low polyreactivity
33 | QVQLVESGGGLVQAGGSLRLSCAASGSIFYWNAMGWYRQAPGKEREFVADISQSGDSTYYADSVKGRFTISRDNAKNTVYLQMNSLKPEDTAVYYCAAQFLSYAWDYDYWGQGTQVTVSS | low polyreactivity
34 | QVQLVESGGGLVQAGGSLRLSCAASGSIFYWYAMGWYRPAPGKERELVAAISYSGGSTYADSVKGRFTISRDNAKNTVYLQMNSLKPEDTAVYYCAVGYYRFGRFLGYYWGQGTQVTVSS | high polyreactivity
35 | QVQLVESGGGLVQAGGSLRLSCAASGSIFYWYAMGWYRQAPGKEREFVAGITGRGGSTYYADSVKGRFTISRDNAKNTVYLQMNSLKPEDTAVYYADFVKYGKYYQRYDYWGQGTQVTVSS | high polyreactivity
36 | QVQLVESGGGLVQAGGSLRLSCAASGSIFYWYAMGWYRQAPGKERELVAAITWSGGSTYYADSVKGRFTISRDNAKNTVYLQMNSLKPEDTAVYYCNKVPYYGAYSSYDYWGQGTQVTVSS | high polyreactivity
37 | QVQLVESGGGLVQAGGSLRLSCAASGSIFYWYAMGWYRQAPGKERELVASIRWSGGTYYADSVKGRFTISRDNAKNTVYLQMNSLKPEDTAVYYCNKGGGRGHFEYWGQGTQVTVSS | low polyreactivity
38 | QVQLVESGGGLVQAGGSLRLSCAASGSIFYWYAMGWYRQARGKERELVAGITYSGGNTYYADSVKGRFTISRDNAKNTVYLQMNSLKPEDTAVYYCAATRGYWRKWRMDYWGQGTQVTVSS | high polyreactivity
39 | QVQLVESGGGLVQAGGSLRLSCAASGSIFYWYDMGWYRQAPGKERELVAAITNDGDSTYYADSVKGRFTISRDNAKNTVYLQMNSLKPEDTAVYYCAADVLFYYEYGSWGQGTQVTVSS | low polyreactivity
40 | QVQLVESGGGLVQAGGSLRLSCAASGSIFYYNAMGWYRQAPGKERELVAAIRRSGGRTYYADSVKGRFTISRDNAKNTVYLQMNSLKPEDTAVYYCAAVHYDRVTGQVDHDYWGQGTQVTVSS | high polyreactivity
41 | QVQLVESGGGLVQAGGSLRLSCAASGSIFYYNAMGWYRQAPGKERELVAAISWSGDSTYYADSVKGRFTISRDNAKNTVYLQMNSLKPEDTAVYYCNTDLVPWTEYWYDYWGQGTQVTVSS | low polyreactivity
